Results on 91 sequences are retold here after the supplement of paper PMC9112550, “Optimization of the antimicrobial peptide Bac7 by deep mutational scanning” (BMC Biology, 2022).

In the data set the test system is Escherichia coli TOP10. Description: shrunken log2 fold change of peptide-encoding DNA abundance (4.5 h post-induction vs induction); higher = less antimicrobial activity (less host growth inhibition). The settings on record: time post-induction: 4.5 h; library: site-saturation at positions 5, 18, 19, 20.
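Further: peptides expressed intracellularly from a pBAD plasmid library in pooled LB shake-flask culture, induced with 0.3% L-arabinose, DNA abundance read by NGS, three biological replicates, DESeq2 with apeglm shrinkage.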

In the case of RRIRDRPPRLPRPRPRPPMFPRP, the “shrunken log2 fold change” value came out at 0.216.
The result for RRIRTRPPRLPRPRPRPRWNPRP reads 0.969.
Under RRIRNRPPRLPRPRPRPYAKPRP stands -0.257; under RRIRMRPPRLPRPRPRPKCHPRP, 0.335; under RRIRSRPPRLPRPRPRPFKWPRP, -0.24.
As for RRIRLRPPRLPRPRPRPRTEPRP, the “shrunken log2 fold change” value was 0.0352.
Under RRIRVRPPRLPRPRPRPITLPRP stands 1.44; under RRIRWRPPRLPRPRPRPFCYPRP, -0.418; under RRIRFRPPRLPRPRPRPGMTPRP, -0.142.
Under RRIRRRPPRLPRPRPRPNETPRP stands -0.0619.
As to RRIRHRPPRLPRPRPRPLEIPRP, the “shrunken log2 fold change” value was -0.0535.
As for RRIRERPPRLPRPRPRPTADPRP, the “shrunken log2 fold change” value is 0.0264.
The result for RRIRVRPPRLPRPRPRPYLCPRP reads 0.0235; that for RRIRERPPRLPRPRPRPRDMPRP, 0.0375.
Under RRIRDRPPRLPRPRPRPAGYPRP stands 0.528; under RRIRKRPPRLPRPRPRPKESPRP, -0.0162.
As for RRIRWRPPRLPRPRPRPGSKPRP, the “shrunken log2 fold change” value worked out at 0.0611.
Under RRIRYRPPRLPRPRPRPLQDPRP stands 0.0382; under RRIRCRPPRLPRPRPRPARPPRP, 0.52; under RRIRFRPPRLPRPRPRPEMKPRP, 0.0843.
The result for RRIRDRPPRLPRPRPRPRDKPRP reads -0.0712; that for RRIRARPPRLPRPRPRPRDTPRP, 0.673; that for RRIRHRPPRLPRPRPRPSFHPRP, -0.495.
Regarding RRIRKRPPRLPRPRPRPDHPPRP, the “shrunken log2 fold change” value is 0.0127.
For RRIRFRPPRLPRPRPRPFSKPRP, the “shrunken log2 fold change” value was 0.033.
Under RRIRARPPRLPRPRPRPDAVPRP stands 0.683; under RRIRNRPPRLPRPRPRPWDVPRP, -0.0115.
With RRIRFRPPRLPRPRPRPEPIPRP, the “shrunken log2 fold change” value stood at 0.291.
The result for RRIRVRPPRLPRPRPRPNRDPRP reads -0.0911; that for RRIRIRPPRLPRPRPRPVNGPRP, -0.0532.
Under RRIRMRPPRLPRPRPRPSVHPRP stands -0.0707; under RRIRGRPPRLPRPRPRPGREPRP, 0.217.
Take RRIRQRPPRLPRPRPRPLLLPRP: the “shrunken log2 fold change” value is -0.363.
The result for RRIRTRPPRLPRPRPRPAPLPRP reads 0.368; that for RRIRERPPRLPRPRPRPRGIPRP, -0.102.
The result for RRIRYRPPRLPRPRPRPFQTPRP reads -0.0251; that for RRIRYRPPRLPRPRPRPLYPPRP, -0.929; that for RRIRERPPRLPRPRPRPHTDPRP, -0.546.
Under RRIRMRPPRLPRPRPRPANCPRP stands -0.242; under RRIRNRPPRLPRPRPRPRAAPRP, 0.601; under RRIRPRPPRLPRPRPRPFVEPRP, -0.0706.
For RRIRTRPPRLPRPRPRPLGEPRP, the “shrunken log2 fold change” value was determined as 0.0248.
The result for RRIRCRPPRLPRPRPRPCGMPRP reads 0.119.
The result for RRIRMRPPRLPRPRPRPGVLPRP reads 0.135.
Under RRIRWRPPRLPRPRPRPCYIPRP stands -0.46.
Take RRIRIRPPRLPRPRPRPKMNPRP: the “shrunken log2 fold change” value is -0.954.
Under RRIRWRPPRLPRPRPRPMPRPRP stands 0.623; under RRIRARPPRLPRPRPRPTHHPRP, 0.468.
Regarding RRIRERPPRLPRPRPRPPWVPRP, the “shrunken log2 fold change” value is -0.0642.
Under RRIRARPPRLPRPRPRPVWCPRP stands 0.293.
In the case of RRIRQRPPRLPRPRPRPYNNPRP, the “shrunken log2 fold change” value was -1.04.
The result for RRIRRRPPRLPRPRPRPYYEPRP reads -0.572.
For the sequence RRIRGRPPRLPRPRPRPWHKPRP, the “shrunken log2 fold change” value was -0.299.
Under RRIRNRPPRLPRPRPRPMLYPRP stands -0.318; under RRIRRRPPRLPRPRPRPFWWPRP, 0.528.
As for RRIRWRPPRLPRPRPRPVTQPRP, the “shrunken log2 fold change” value was -0.0775.
Under RRIRVRPPRLPRPRPRPLVFPRP stands -0.00523; under RRIRWRPPRLPRPRPRPYGGPRP, -0.683; under RRIRQRPPRLPRPRPRPYTQPRP, -0.25.
The result for RRIRSRPPRLPRPRPRPCYPPRP reads -0.264.
As for RRIRHRPPRLPRPRPRPSAIPRP, the “shrunken log2 fold change” value was -0.00669.
In the case of RRIRMRPPRLPRPRPRPTHPPRP, the “shrunken log2 fold change” value was determined as 0.564.
Under RRIRTRPPRLPRPRPRPECYPRP stands -0.0535; under RRIRFRPPRLPRPRPRPCCLPRP, -0.725; under RRIRCRPPRLPRPRPRPFGCPRP, -0.308.
Under RRIRGRPPRLPRPRPRPVTHPRP stands 0.106.
Under RRIRYRPPRLPRPRPRPFAEPRP stands -0.509; under RRIRVRPPRLPRPRPRPDAYPRP, -0.056; under RRIRERPPRLPRPRPRPSLNPRP, -0.181.
In the case of RRIRLRPPRLPRPRPRPSEWPRP, the “shrunken log2 fold change” value is -0.0637.
Under RRIRQRPPRLPRPRPRPQHRPRP stands -0.0379.
The result for RRIRARPPRLPRPRPRPTSFPRP reads 0.237.
The result for RRIRFRPPRLPRPRPRPCKCPRP reads -0.317.
RRIRQRPPRLPRPRPRPDMVPRP: the “shrunken log2 fold change” value is -0.0075.
The result for RRIRIRPPRLPRPRPRPQFRPRP reads -0.234.
Under RRIRNRPPRLPRPRPRPQEYPRP stands -0.578; under RRIRTRPPRLPRPRPRPNGSPRP, -0.198; under RRIRLRPPRLPRPRPRPLWKPRP, -0.0337.
As for RRIRNRPPRLPRPRPRPFRCPRP, the “shrunken log2 fold change” value is -0.0563.
Under RRIRYRPPRLPRPRPRPMFTPRP stands -0.629; under RRIRHRPPRLPRPRPRPQMKPRP, -0.553; under RRIRIRPPRLPRPRPRPKESPRP, -0.258.
The result for RRIRERPPRLPRPRPRPLPKPRP reads 0.222; that for RRIRTRPPRLPRPRPRPQLPPRP, 0.107; that for RRIRNRPPRLPRPRPRPGDIPRP, 0.0338.
The result for RRIRQRPPRLPRPRPRPEREPRP reads 0.0841.
Consider RRIRDRPPRLPRPRPRPFNSPRP, for which the “shrunken log2 fold change” value was -0.0203.
The result for RRIRFRPPRLPRPRPRPTRFPRP reads 0.429; that for RRIRWRPPRLPRPRPRPEQKPRP, 0.0146; that for RRIRKRPPRLPRPRPRPAPKPRP, 1.06.
As for RRIRRRPPRLPRPRPRPTNWPRP, the “shrunken log2 fold change” value was found to be 0.37.
